Assay results reported in US20170296650A1 (Novartis, published 2017).

T1: hCMV UL128 (HEK293T transfectant) (hCMV, UniProt P16837 28-171)
T1 sequence: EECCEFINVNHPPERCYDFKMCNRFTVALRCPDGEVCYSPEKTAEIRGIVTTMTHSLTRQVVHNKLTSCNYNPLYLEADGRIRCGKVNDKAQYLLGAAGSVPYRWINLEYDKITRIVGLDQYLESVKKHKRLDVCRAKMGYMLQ


What was measured:
[1] = biological target: T2, hCMV glycoprotein B (gB; HEK293T transfectant) (hCMV, UniProt P06473 32-906); assay: cell-based or functional assay
[2] = biological target: T2, hCMV glycoprotein B (gB; HEK293T …); assay: cell-based or functional assay; remark: listed apart in the source
[3] = biological target: T2, hCMV glycoprotein B (gB; HEK293T …); assay: cell competition; competitor 4H9-biotin
[4] = biological target: T2, hCMV glycoprotein B (gB; HEK293T …); assay: cell competition; competitor 6B4-biotin
[5] = biological target: T2, hCMV glycoprotein B (gB; HEK293T …); assay: cell competition; competitor 10C6-biotin
[6] = biological target: T2, hCMV glycoprotein B (gB; HEK293T …); assay: cell-based or functional assay; remark: listed apart in the source
[7] = biological target: T2, hCMV glycoprotein B (gB; HEK293T …); assay: cell competition; competitor 5F1-biotin
[8] = biological target: T2, hCMV glycoprotein B (gB; HEK293T …); assay: cell competition; competitor 2B11-biotin
[9] = biological target: T2, hCMV glycoprotein B (gB; HEK293T …); assay: cell competition; competitor 7H3-biotin
[10] = biological target: T3, hCMV gH + gL + UL128 + UL130 + UL131A (5-member complex; HEK293T co-transfectant) (hCMV, UniProt P12824 24-743; P16832 31-278; P16837 1-171; P16772 1-214); assay: cell competition; competitor 5A2-biotin
T3 construct: whole, on cells; in the functional rows it stands for the complex on virions or transduced cells of the strain or isolate named in the readout; also called gH/gL/UL128-131A complex; pentameric complex

[11] = biological target: T4, hCMV gH + gL + UL128 + UL130 (HEK293T co-transfectant) (hCMV, UniProt P12824 24-743; P16832 31-278; P16837 28-171; P16772 1-214); assay: cell-based or functional assay
[12] = biological target: T3, hCMV gH + gL + UL128 + UL130 + UL131A …; assay: cell competition; competitor 1F11-biotin
[13] = biological target: T3, hCMV gH + gL + UL128 + UL130 + UL131A …; assay: cell competition; competitor 2C12-biotin
[14] = biological target: T3, hCMV gH + gL + UL128 + UL130 + UL131A …; assay: cell competition; competitor 4N10-biotin
[15] = biological target: T3, hCMV gH + gL + UL128 + UL130 + UL131A …; assay: cell competition; competitor 4I22-biotin
[16] = biological target: T3, hCMV gH + gL + UL128 + UL130 + UL131A …; assay: cell competition; competitor 6G4-biotin
[17] = biological target: T4, hCMV gH + gL + UL128 + UL130 (HEK293T …); assay: cell-based or functional assay; remark: listed apart in the source
[18] = biological target: T3, hCMV gH + gL + UL128 + UL130 + UL131A …; assay: cell competition; competitor 15D8-biotin
[19] = biological target: T3, hCMV gH + gL + UL128 + UL130 + UL131A …; assay: cell competition; competitor 2F4-biotin
[20] = biological target: T3, hCMV gH + gL + UL128 + UL130 + UL131A …; assay: cell competition; competitor 8I21-biotin
[21] = biological target: T1, hCMV UL128 (HEK293T transfectant); assay: cell-based or functional assay
[22] = biological target: T3, hCMV gH + gL + UL128 + UL130 + UL131A …; assay: cell competition; competitor 10F7-biotin
[23] = biological target: T1, hCMV UL128 (HEK293T transfectant); assay: cell-based or functional assay; remark: listed apart in the source

T2 sequence (P06473 32-906 limits assumed): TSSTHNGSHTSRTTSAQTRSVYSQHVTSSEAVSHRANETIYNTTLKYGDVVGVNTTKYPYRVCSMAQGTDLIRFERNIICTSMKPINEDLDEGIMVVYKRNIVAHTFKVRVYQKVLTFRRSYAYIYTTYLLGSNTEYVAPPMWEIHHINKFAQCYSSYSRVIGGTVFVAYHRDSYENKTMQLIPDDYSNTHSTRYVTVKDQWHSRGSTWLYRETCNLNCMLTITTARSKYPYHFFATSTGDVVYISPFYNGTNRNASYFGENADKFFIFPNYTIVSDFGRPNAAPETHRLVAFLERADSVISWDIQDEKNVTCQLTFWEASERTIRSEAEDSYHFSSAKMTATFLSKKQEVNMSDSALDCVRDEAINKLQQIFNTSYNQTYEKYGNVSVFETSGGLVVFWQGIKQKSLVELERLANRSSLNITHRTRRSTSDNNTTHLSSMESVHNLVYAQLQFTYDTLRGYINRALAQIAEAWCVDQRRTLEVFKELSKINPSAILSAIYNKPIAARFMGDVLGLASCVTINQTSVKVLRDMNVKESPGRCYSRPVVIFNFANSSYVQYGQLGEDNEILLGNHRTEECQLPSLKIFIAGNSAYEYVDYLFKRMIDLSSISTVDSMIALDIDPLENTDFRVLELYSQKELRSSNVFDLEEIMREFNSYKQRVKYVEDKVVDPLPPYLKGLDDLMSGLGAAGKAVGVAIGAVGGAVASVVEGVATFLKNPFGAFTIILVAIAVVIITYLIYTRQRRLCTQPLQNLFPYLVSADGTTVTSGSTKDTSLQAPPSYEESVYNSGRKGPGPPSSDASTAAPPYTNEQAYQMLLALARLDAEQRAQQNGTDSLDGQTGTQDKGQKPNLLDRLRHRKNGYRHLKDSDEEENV

Row | Binder | 50% neutralization VR1814, BM-MSC [1] | 50% neutralization VR1814, Mo-DC [1] | 50% neutralization VR1814, ARPE [2] | 50% neutralization VR1814, MRC-9 [2] | Inhibition of binding (%) [3] | Inhibition of binding (%) [4] | Inhibition of binding (%) [5] | 90% neutralization VR1814, ARPE [6] | 90% neutralization VR1814, MRC-9 [6] | Inhibition of binding (%) [7] | Inhibition of binding (%) [8] | Inhibition of binding (%) [9] | Inhibition of binding (%) [10] | Inhibition of binding (%) [12] | Inhibition of binding (%) [13] | Inhibition of binding (%) [14] | Inhibition of binding (%) [15] | Inhibition of binding (%) [16] | Inhibition of binding (%) [18] | Inhibition of binding (%) [19] | also measured
1 | 5F1 (antibody, V domains shown, human IgG; also called 5F1-biotin) VH: AVQLVESGGGLAQPGRSLRLSCKVSGFTFSSYEMNWVRQAPGKGLEWIAYIDFTGSTIYYADSVKGRFTISRDTARNSLYLQMNKLRVEDTAVYYCVRDAGRWGTSWYYFDYWGQGTLVTVSS VL: QSVLTQPPSVSGAPGQRVTISCTGLSSNIGAGYDIHWYQQIPGKAPKLLIYGNNNRPSGVPDRFSGSKSGTSVSLAITGLQAEDEADYYCQSYDSSLNGWVFGGGTRLTVL | 0.3 µg/mL | 0.05 µg/mL | ≤ 2 µg/mL | ≤ 2 µg/mL | 100% | 0% | 100% | 0.1 µg/mL | 0.5 µg/mL | 100% | 100% | 0% |  |  |  |  |  |  |  |  | 
2 | 10C6 (antibody, V domains shown, human IgG; also called 10C6-biotin; 1006) VH: AVQLVESGGGLAQPGRSLRLSCKVSGFSFSNFEMNWVRQAPGKGLEWIAYIDFTGSTIYYSDSVKGRFTISRDTARNSLYLQMNKLRVEDTAVYYCVRDAGRWGTSWYYFDYWGQGTLVTVSS VL: QSVLTQPPSVSGAPGQRVTISCTGLSSNIGAGYDIHWYQQIPGKAPKLLIYGNNNRPSGVPDRFSGSKSGTSVSLAITGLQAEDEADYYCQSYDSSLNGWVFGGGTRLTVL | 0.3 µg/mL | 0.02 µg/mL | ≤ 2 µg/mL | ≤ 2 µg/mL | 100% | 0% | 100% | 0.2 µg/mL | 0.75 µg/mL | 100% | 100% | 0% |  |  |  |  |  |  |  |  | 
3 | 4H9 (antibody, V domains shown, human IgG; also called 4H9-biotin; 4H9.6) VH: AVQLVESGGGLVRPGGSLRLSCAASGFTFSSHEMHWVRQAPGKGLEWLSYIDFTGSIIYYADSVRGRFTISRDNTKKSLFLQMNSLRDEDTALYYCARDGGRWGTSWYYFDYWGQGVLVTVSS VL: QSVLTQPPSVSGAPGQRVTITCTGSSSNFGAGYDGHWYQQLPGTAPKLLIYGSNRPSGVPDRFSGSKSGTSVSLAITGLQADDEADYYCQSYDSSLSAWVFGGGTKLTVL |  |  | ≤ 2 µg/mL | ≤ 2 µg/mL | 100% | 0% | 100% | 0.4 µg/mL | 10 µg/mL | 100% | 100% | 0% |  |  |  |  |  |  |  |  | 
4 | 8I21 (antibody, V domains shown, human IgG; also called 8I21-biotin) VH: LVELVESGGGVVQPGRSLRLSCAASGFTFSSDGMHWVRQSPGRGLEWVAFISSDGSTPYYADSVKGRFTISRDNSKNTLYLQMNSLRAEDTAMYFCAKDWALFRWLRTFDHWGQGTLVTVSS VL: not shown |  |  |  |  |  |  |  |  |  |  |  |  | 95% | 0% | 0% | 90% | 0% | 0% | 0% | 0% | 50% neutralization VR1814, ARPE [11]: < 0.01 µg/mL; 50% neutralization VR1814, MRC-9 [11]: > 2 µg/mL; 90% neutralization VR1814, ARPE [17]: 0.03 µg/mL; 90% neutralization VR1814, MRC-9 [17]: > 10 µg/mL; Inhibition of binding (%) [20]: 100%
5 | 15D8 (antibody, V domains shown, human IgG; also called 15D8-biotin) VH: EVQLVQSGAEVKKPGESLKISCQASGYSFTNYWIAWVRQMPGKGLEWMGIIYPGDSDIKYSPSFRGQVTISADKSISNAFLQWRSLRASDTAMYYCARHAIRGDGFDYWGQGTLVTVSS VL: SYELTQPPSVSVSPGQTATITCSGDKLGEKYACWYQQKPGQSPVLVMYQDTKRPSGIPERFSGSNSGNTATLTISGTRAMDEADYYCQAWDTNTVIFGGGTKLTVL |  |  |  |  |  |  |  |  |  |  |  |  | 0% | 0% | 0% | 0% | 0% | 0% | 100% | 0% | 50% neutralization VR1814, ARPE [21]: < 0.001 µg/mL; 50% neutralization VR1814, MRC-9 [21]: > 2 µg/mL; Inhibition of binding (%) [22]: 0%; 90% neutralization VR1814, ARPE [23]: 0.008 µg/mL; 90% neutralization VR1814, MRC-9 [23]: > 10 µg/mL; Inhibition of binding (%) [20]: 0%
6 | 6B4 (antibody, V domains shown, human IgG; also called 6B4-biotin) VH: QVQLVESGGGVVQPGRSLRLSCAASGFRFNEFNMHWVRQAPGKGLEWVAVISIDGRHKYNADSVEGRFTISRDNSRNTLYLQMNSLRVEDTALYYCVTDGKAVDGFSGILEFWGQGTPVTVST VL: EIVLTQSPATLSLSPGERATLSCWASQSVGGYLAWYQQKPGQAPRLLIYDASIRATGIPARFSGSGSGTHFTLTINSLEPEDFAVYYCQQRNNWPPLTFGGGTKVEIK | 2 µg/mL | 0.11 µg/mL | ≤ 2 µg/mL | ≤ 2 µg/mL | 0% | 100% | 0% | 0.15 µg/mL | 1 µg/mL | 0% | 0% | 0% |  |  |  |  |  |  |  |  | 
